We go through one molecule from paper PMC10328401 (Science Advances, 2023).

This test deals with T1, RsgI2-PD C-terminal fragment after autocleavage at Asn97-Pro98 (Clostridium thermocellum DSM 1313, UniProt A3DC27 98-259).
T1 sequence (looked up): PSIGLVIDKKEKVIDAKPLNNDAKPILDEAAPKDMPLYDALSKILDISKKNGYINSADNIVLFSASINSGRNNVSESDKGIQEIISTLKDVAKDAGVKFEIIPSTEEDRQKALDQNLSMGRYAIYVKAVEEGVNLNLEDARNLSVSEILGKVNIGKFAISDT
Kind of test: crystal structure.

For the molecule SQEYAYIDVDIN (peptide, UniProt A3DC27 86-97, looked up) [RsgI2-PD N-terminal fragment after autocleavage at Asn97-Pro98 (β1 strand chain, twelve residues)], the binding result is listed as “binds”.
